Data: the nanobody polyreactivity screen of Harvey et al. (2022)

Assay: yeast display, Sf9 membrane polyspecificity reagent, FACS + sequencing; frameworks hold sequencing errors
In short: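 In a synthetic yeast display library (Saccharomyces cerevisiae BJ5465), nanobody expression was induced with galactose for 36–48 hours. FACS gates were set low and high (top ~1%) using anti-HA fluorescence for expression and streptavidin fluorescence for binding of the Sf9 membrane reagent. Each polyreactivity label is drawn from the gate of origin.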

Sequence	polyreactivity (PSR sort gate)
QVQLVESGGGLVQAGGSLRLSCAASGFIFRVYAMGWYRQAPGKERELVAAMSYSGGSTYYADSVKGRFTISRDNAKNTVYLQMNSLKPEDTAVYYCAAESYVSRYPYGYWGQGTQVTVSS	high polyreactivity
QVQLVESGGGLVQAGGSLRLSCAASGFIFRVYTMGWYRQAPGKERELVAAISYRGGRTYYADSVKGRFTISRDNAKNTVYLQMNSQKPEDTAVYYCAADRVNREFDYWGQGTQVTVSS	high polyreactivity
QVQLVESGGGLVQAGGSLRLSCAASGFIFRWYAKGWYRQAPGKERELVATITRSGGSTYYADSVKGRFTSSRDNAKNTVYLQMNSLKPEDTAVYYCNAGYSYKYYYWGQGTQVTVSS	high polyreactivity
QVQLVESGGGLVQAGGSLRLSCAASGFIFRWYAMGWYRQAPGKERELVATITGGGSTYYADSVKGRFTISRDNAKNTVYLQMNSLKPEDTAVYYCNARQIWKYSVRDDYWGQGTQVTVSS	high polyreactivity
QVQLVESGGGLVQAGGSLRLSCAASGFIFRWYTMGWYRQAPGKERELVAAISWRSGSTSYADSVMGRFTISRDNAKNTVYFQMNSLKPEDSAGYYCNADYSSFWTSYDYWGQGTQVTVSS	high polyreactivity
QVQLVESGGGLVQAGGSLRLSCAASGFIFRYNAMGWYRQAPGKERELVARITSSGGTTYYADSVKGRFTISRDNAKNTVYLQMNSLKPEDTAVYYCAITWRKYYPPYYYWGQGTQVTVSS	high polyreactivity
QVQLVESGGGLVQAGGSLRLSCAASGFIFRYNAMGWYRQAPGKESELVAAISSSGTTNYADSVKGRFTISRDNAKNTVYLQMNSLKPEDTAVYYCAARRSYARRFKNSMEYWGEGTQVTVSS	high polyreactivity
QVQLVESGGGLVQAGGSLRLSCAASGFIFRYNAMGWYRQRPGKERELVAVITSGGRTYYADSVKGRFTISRDNAKNTVYLQMNSLKPEDTAFYYCNADSRHRRNYDYWGQGTQVTVSS	high polyreactivity
QVQLVESGGGLVQAGGSLRLSCAASGFIFRYYALGWYRQAPGKERELVAAISWRGGTTYYADSVKGRFTISRDNAKNTVYLQMQSLKPEDTAVYYCAADWQWDLGPYIYQVEYWGQGTLVTVSS	high polyreactivity
QVQLVESGGGLVQAGGSLRLSCAASGFIFRYYAMGRYRPAPGKERELVAAISKRGGGTYYADSVKGRFTISRDNAKNTVYLQMNSLKPEDTAVYYCKKDGGYGTGSSREYDSWGQGTQVTVSS	high polyreactivity
QVQLVESGGGLVQAGGSLRLSCAASGFIFRYYAMGWYRQAPGKERELVAAINASGGRTYYADSVKGRFTISRDNARNTVYFQMNSLKPEDSAVYYCAAYRSYQTFDYWGQGTQVTVSS	high polyreactivity
QVQLVESGGGLVQAGGSLRLSCAASGFIFRYYAMGWYRQAPGKERELVAAISYSGGSTYYADSVKGRFTISRDTAKNTVYLQMNSLKPEDTAVYYCAAVLRTRDHPQPNYVYWGQGTQVTVSS	high polyreactivity
QVQLVESGGGLVQAGGSLRLSCAASGFIFRYYAMGWYRQAPGKERELVARINKSGGYTYYADSVKGRFTISRDNAKNTVYLQMNSLKPEDTAVYYCNRVRVFSVPFDYWGQGTQVTVSS	high polyreactivity
QVQLVESGGGLVQAGGSLRLSCAASGFIFRYYAMGWYRQAPGNERELVAAISYSGGSTYYADSVKGRFTISRDNAKNTVYLQMNSLKPEDTAVYYGAAVLRTRDHPQPNYEYWGQGTQVTVSS	high polyreactivity
QVQLVESGGGLVQAGGSLRLSCAASGFIFRYYARGWYRQAPGKERELVAAISSTGGSTSYADSVKGRFTISRDNAKNTVYLQLNSQKPEDTAVYDCAADYWIRRRTYGQLYRPYYYWGQGTQVTVSS	high polyreactivity
QVQLVESGGGLVQAGGSLRLSCAASGFIFRYYTMGWYRQAPGKERELVATITSGGSTYYADSVKGRFTISCDNAKNTVYLQMNSLKPEDTAVYYCAKVRDVLWRFNYWGQGTQVTVSS	high polyreactivity
QVQLVESGGGLVQAGGSLRLSCAASGFIFSAYSMGWYRPEPGKERELVAAISYSGGTTYYADSVKGRFTISRDNAKNTLYLQMNSLKPEDTAVYYCAAGVGYWGQGTQVTVSS	high polyreactivity
